Legend:
[1] = test system: humanized ANGPTL4×ApoE null mice; experiment: Serum TG levels in humanized ANGPTL4 x ApoE null mice; type: in vivo, mouse
Method: The effect of H4H268P2 on circulating TG levels was further studied in humanized ANGPTL4 mice crossed to ApoE null mice. The ApoE null mouse model is known as a highly atherogenic and hyperlipidemic model with the majority of cholesterol and TG circulating in VLDL particles due to impaired VLDL remnant clearance. Humanized ANGPTL4×ApoE null mice were pre-bled 7 days before the experiment and put into 2 groups of six mice each. Antibodies H4H268P2 and Control Ab were administered at 10 mg/kg by subcutaneous injection. Mice were bled after 4 hours of fasting on days 1, 4, 7, 11 and 17 after antibody injection and TG levels were determined in the serum by ADVIA® 1800 Chemistry System (Siemens). TG reductions shown in FIG. 4 are expressed as a percent of TG levels compared to Control Ab.

[2] = test system: obese rhesus monkeys (Macaca mulatta); experiment: Phase I pilot PK/PD study in obese rhesus monkeys; type: in vivo, rhesus monkey (Macaca mulatta)
Method: Phase I: In a pilot non-GLP pharmacokinetics/pharmacodynamic (PK/PD) study, H4H268P2 and H4H284P were administered as a single bolus intravenous (IV) injection, to obese rhesus monkeys (Macaca mulatta). Rhesus monkeys were selected because this species is closely related, both phylogenically and physiologically, to humans and is a species commonly used for nonclinical toxicity evaluations. Obese monkeys that had been on a high fat diet for greater than 6 months were selected because they typically display moderately elevated TG levels (i.e., mean >100 mg/dL; hyper-TG). Eight confirmed healthy, male monkeys were acclimated and assigned to the study for baseline assessment for 7 days prior to dosing. All animals received a vehicle (10 mM histidine, pH 6) IV infusion on Day −5, after which four of them received H4H268P2 and another four H4H284P at 10 mg/kg IV on day 0.
Serum samples were collected from the baseline period through day 35 post-dosing and assessed for serum lipid levels by ADVIA® 1800 Chemistry System (Siemens). The average baseline for each animal was determined based on the samples taken on Days −7, −5 and 0. […] Thus the data analysis was done with 3 animals in each group. Percent (%) changes of serum TG levels from the baseline were determined for each animal and averaged for each Ab group.

[3] = test system: obese rhesus monkeys (Macaca mulatta); experiment: Phase II pilot PK/PD study in obese rhesus monkeys; type: in vivo, rhesus monkey (Macaca mulatta); details: 10 mg/kg IV
Method: Phase II: In the second non-GLP pharmacokinetics/pharmacodynamic (PK/PD) study only H4H268P2 was administered as a single bolus intravenous (IV) injection to eight obese rhesus monkeys (Macaca mulatta). The step of pre-dosing vehicle injection was omitted in this study. Three baseline assessments were taken at days −7, −3 and 0 of the study and all eight monkeys received H4H268P2 at 10 mg/kg by IV on day 0. Serum samples were collected from the baseline period through day 35 post-dosing and assessed for serum lipid levels by ADVIA® 1800 Chemistry System (Siemens). Animals were grouped for data analysis according to average baseline TG levels so as to prospectively predict the effect: A. TG<150 mg/dL (n=3); B. 150 mg/dL<TG<500 mg/dL (n=4); and C. TG>1000 mg/dL (n=1).

[4] = Pharmacokinetic clearance in wild-type and hANGPTL4(+/+) mice, sandwich ELISA; type: in vivo, mouse; details: 1 mg/kg s.c.
Method: Pharmacokinetic clearance rates of anti-hANGPTL4 antibodies H4H268P2 and H4H284P were determined in wild-type mice and in transgenic mice expressing human ANGPTL4 [hANGPTL4(+/+) mice]. The strain background for both wild-type and transgenic mice was C57BL6 (75%) and 129Sv (25%). Separate cohorts consisting of 5 mice each of either wild-type or hANGPTL4(+/+) mice received subcutaneously (s.c.) 1 mg/kg of H4H268P2, H4H284P, or an isotype-matched (hIgG4) control with irrelevant specificity. Blood samples were collected at 0 hour, 6 hours, 1 day, 2 days, 3 days, 4 days, 7 days, 10 days, and 15 days, 22 days, and 30 days after the injection. Serum levels of human antibodies were determined by a sandwich ELISA. Briefly, a goat polyclonal anti-human IgG (Fc-specific) capture antibody (Jackson ImmunoResearch, PA) was coated in 96-well plates at a concentration of 1 μg/mL and incubated overnight at 4° C. After the plates were blocked with BSA, serum samples in a six-point serial dilution and reference standards of the respective antibody in a twelve-point serial dilution were added to the plate and incubated for one hour at room temperature. After washing with a suitable washing buffer, captured human antibodies were detected using the same goat polyclonal anti-human IgG (Fc-specific) antibody conjugated with horse radish peroxidase (HRP) (Jackson ImmunoResearch, PA) and developed by standard colorimetric response using tetramethylbenzidine (TMB) substrate, measuring absorbance at 450 nm in a plate reader. Concentrations of human antibodies in serum were determined using the reference standard curve generated for the same sample plate.

humanized ANGPTL4 mice = experiment: Serum TG, H4H268P2 and fenofibrate alone or in combination; type: in vivo, mouse; details: day 7; H4H268P2 10 mg/kg s.c. day 0; fenofibrate 0.05% (w/w) in chow
Method: The effects of the anti-ANGPTL4 antibody H4H268P2 and TG-reducing drug fenofibrate, each alone or in combination, on serum TG levels were evaluated in humanized ANGPTL4 mice. The mice were pre-bled 7 days before the experiment after 4 hours of fasting and put into 4 groups of six mice each. Groups 2 and 4 were administered with H4H268P2 at 10 mg/kg by subcutaneous injection on day 0 and groups 1 (control group) and 2 were placed on regular chow diet. Groups 3 and 4 received chow diet supplemented with 0.05% (w/w) of fenofibrate (the dosage level was determined experimentally in a pilot study). Serum was collected from a terminal bleed on day 7 after H4H268P2 and/or fenofibrate administration (after 4 hours of fasting) and analyzed by ADVIA® 1800 Chemistry System (Siemens).

[5] = animals with baseline 150 mg/dL<TG<500 mg/dL

B1: H4H268P2: IgG4 version of H1H268P with a single amino acid substitution in framework region 1, HCVR/LCVR SEQ ID NOs 487/44 (antibody, V domains shown)
VH: QVQLQQSGAGLLKPSETLSLTCTVYGGSFSIHHWTWIRHPPGKGLEWIGEINHRGSTNYNPSLKSRVTISIDTSKNQFSLKLSAVTAADTAVYYCARGLRFLDWLSSYFDYWGQGTLVTVSS
VL: DIQMTQSPSSLSASVGDRVTITCRASQGISDYLAWYQQKPGKVPNLLIYAASALQSGVPSRFSGSGSGTDFTLTISSLQPEDVATYYCQNYNTAPLTFGGGTKVEIK
modifications: IgG4 constant region
TG reduction compared to Control Ab ([1]; all 17 days, 10 mg/kg s.c.): more than 42%
greatest TG reduction compared to Control Ab ([1]; day 7, 10 mg/kg s.c.): ~50%
additional lipids, such as LDL-C and HDL-C, in words ([2]; 10 mg/kg IV): Moderate effects
total-C, in words ([2]; 10 mg/kg IV): unchanged
injection site reactions or other adverse effects ([2]; 10 mg/kg IV, any time point after infusion): No injection site reactions or other adverse effects were observed
maximal reduction of serum TG from baseline ([2]; day 4 post-dosing, 10 mg/kg IV, three mildly hyper-TG animals): 57%
fasting TG's or any other lipid parameters, in words ([2]; single obese animal with low TG levels, 10 mg/kg IV): did not yield any significant effect
mean serum TG levels ([2]; until approximately Day 25, 10 mg/kg IV, three mildly hyper-TG animals): ≤ 100 mg/dL
HDL-C, in words [3, 5]: increased
LDL-C or Total-C, in words [3, 5]: no effect
decrease in TG levels from baseline [3, 5]: 50-68%
response of fasting TG, in words ([3]; animals with baseline TG<150 mg/dL (normal TG levels)): largely unresponsive
TG level, in words ([3]; individual animal with baseline TG >1000 mg/dL): dramatic and rapid drop in TG level
Cmax ([4]; Wild-type mice): 18.4 µg/mL
Cmax ([4]; hANGPTL4(+/+) mice): 13.3 µg/mL
AUC ([4]; hANGPTL4(+/+) mice, over the 30-day period): 37.0 µg·h/mL
TG levels reduced (mean) compared to control group on chow diet (humanized ANGPTL4 mice): ~40%
